Experimental data: patent publication US20260070986A1 (AFFIMED, published 2026)

Experiments:
[1] = biological target: T1, recombinant murine FcγRIIB (CD32), biotinylated (murine, UniProt P08101 30-207, limits assumed, site-directed biotinylation at AviTag); experiment: SPR (Biacore T200), 37 C, biotin-captured receptor
T1 construct: also called murine CD32B; mouse CD32B
T1 sequence (looked up): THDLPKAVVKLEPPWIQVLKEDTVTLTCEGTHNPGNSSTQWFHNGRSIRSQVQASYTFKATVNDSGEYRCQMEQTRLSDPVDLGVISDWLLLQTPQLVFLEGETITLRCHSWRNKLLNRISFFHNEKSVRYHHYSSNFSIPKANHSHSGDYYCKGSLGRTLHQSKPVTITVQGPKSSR
Description: Sensor chips were pre-equilibrated in HBS-P+ running buffer for 12 hours prior to the first measurement and the detectors were normalized using BIAnormalization solution (70% w/w glycerol) according to the manufacturer's instructions.
Interaction analysis of FcRn binding was performed at pH 6.0 in PBS/0.05% Tween 20; analytes and ligands were diluted in the same buffer. […] Ligand-free surfaces in FC1 and FC3 were used as references for response signals (FC2-1, FC4-3). Interaction analysis of CD64, CD32, and murine CD16-2 binding was performed in HBS-P+ buffer and analytes and ligands were diluted in the same buffer. Biotinylated Fcγ-Receptors were captured to a density of approximately 15 to 30 RU (FC2, FC3, and FC4) before increasing concentrations (500 nM to 4000 nM) of antibody were injected, using the single-cycle kinetic mode (FC1-FC4) at a flow rate of 40 μL/min for 100 seconds followed by dissociation for 90 seconds. A zero-concentration cycle and ligand-free surface in FC1 was used for referencing of response signals (FC2-1, FC3-1, and FC4-1). Sensor chip surfaces were prepared and regenerated before and after each measurement using Biotin Capture reagent (Biotin CAPture Kit, GE Healthcare) and 6 M guanidine-HCl, 0.25 M NaOH, respectively.
Binding affinities were determined by fitting data using the steady state affinity model of the Biacore T200 Evaluation software (v3.1).

[2] = biological target: T2, human CD16A (158F) on transfected CHO cells (cAg_34) (human, UniProt P08637 17-254); experiment: flow cytometry on huCD16A-transfected CHO cells (cAg_34), one-site fit of MFI, experiment 2
T2 construct: Exact cell-anchored construct not described; also called huCD16A
T2 sequence (P08637 17-254 limits assumed): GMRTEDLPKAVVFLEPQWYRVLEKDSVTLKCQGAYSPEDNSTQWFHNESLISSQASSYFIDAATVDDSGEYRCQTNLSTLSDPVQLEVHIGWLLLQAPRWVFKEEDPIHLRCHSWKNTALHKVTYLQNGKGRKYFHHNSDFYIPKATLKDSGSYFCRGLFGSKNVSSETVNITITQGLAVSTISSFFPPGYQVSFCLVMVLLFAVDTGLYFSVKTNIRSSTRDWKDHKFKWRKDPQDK
Description: (§1) After washing in FACS buffer, cells were incubated in 50 μL FACS buffer without antibodies or with titrated antibodies starting at a concentration of 100 μg/mL followed by ten 5-fold serial dilutions for 30 min on ice in the dark. After washing twice, cells were incubated with APC-conjugated goat anti-human IgG (H+L)-APC (Dianova, cat. 109-136-088) for 30 min on ice in the dark. […] After washing, binding was measured by flow cytometry and mean fluorescence intensities (MFI) of cell samples were calculated and corrected for background staining using control cells stained with secondary antibodies only.
(§2) Equilibrium dissociation constants (KD) of antibody binding were calculated by plotting MFI values and fitting a non-linear regression model for one-site binding to hyperbolic dose-response curves using GraphPad Prism.

[3] = biological target: T2, human CD16A (158F) on transfected CHO …; experiment: flow cytometry on huCD16A-transfected CHO cells (cAg_34), one-site fit of MFI, experiment 3
Description: as §1, §2

[4] = biological target: T3, recombinant murine neonatal Fc receptor (FcRn), biotinylated (murine, UniProt Q61559 22-297, limits assumed, site-directed biotinylation at AviTag); experiment: SPR (Biacore), 37 °C, pH 6.0, biotin-captured murine FcRn as ligand, steady-state affinity fit
T3 construct: also called murine FcRn
T3 sequence (looked up): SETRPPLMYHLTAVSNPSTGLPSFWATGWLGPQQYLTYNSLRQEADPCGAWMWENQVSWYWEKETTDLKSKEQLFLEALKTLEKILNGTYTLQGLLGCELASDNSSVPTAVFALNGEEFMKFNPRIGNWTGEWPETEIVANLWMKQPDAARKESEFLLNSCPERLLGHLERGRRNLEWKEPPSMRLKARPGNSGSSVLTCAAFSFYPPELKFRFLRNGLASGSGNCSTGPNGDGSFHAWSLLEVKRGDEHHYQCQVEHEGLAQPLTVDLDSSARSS
Description: Affinity parameters were evaluated for interaction with human FcRn, cynomolgus FcRn or murine FcRn using a Steady State Binding model (D-F).

[5] = biological target: T4, recombinant human FcγRI (CD64), biotinylated (human, UniProt P12314 16-288, limits assumed, site-directed biotinylation at AviTag); experiment: SPR (Biacore), 37 °C, biotin-captured human CD64 as ligand, steady-state plot; left-hand column, no heading on the sheet
T4 construct: also called human CD64
T4 sequence (P12314 16-288 limits assumed): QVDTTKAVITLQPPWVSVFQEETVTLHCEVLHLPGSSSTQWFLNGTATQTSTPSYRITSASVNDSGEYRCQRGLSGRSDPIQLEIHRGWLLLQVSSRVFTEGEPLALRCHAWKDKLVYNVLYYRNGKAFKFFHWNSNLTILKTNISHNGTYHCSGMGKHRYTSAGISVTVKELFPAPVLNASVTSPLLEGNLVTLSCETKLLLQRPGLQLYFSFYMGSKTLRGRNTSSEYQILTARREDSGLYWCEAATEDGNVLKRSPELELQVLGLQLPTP
Description: (§3) FIG. 20: SPR interaction analysis of antibody binding to CD64 and murine CD16-2. […] Affinity parameters were evaluated for interaction with receptors using a Steady State Binding model.

[6] = biological target: T5, recombinant murine FcγRI (CD64), biotinylated (murine, UniProt P26151 25-297, limits assumed, site-directed biotinylation at AviTag); experiment: SPR (Biacore), 37 °C, biotin-captured murine CD64 as ligand, steady-state plot; left-hand column, no heading on the sheet
T5 construct: also called murine CD64; mouse CD64
T5 sequence (looked up): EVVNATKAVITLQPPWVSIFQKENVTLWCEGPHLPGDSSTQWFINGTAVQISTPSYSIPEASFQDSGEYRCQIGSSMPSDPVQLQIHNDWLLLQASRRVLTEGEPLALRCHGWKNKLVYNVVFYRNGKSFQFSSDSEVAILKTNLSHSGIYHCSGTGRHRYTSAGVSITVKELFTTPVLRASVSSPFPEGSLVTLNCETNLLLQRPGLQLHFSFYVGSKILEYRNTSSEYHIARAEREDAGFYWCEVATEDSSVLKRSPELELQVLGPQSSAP
Description: as §3

[7] = biological target: T6, recombinant human FcγRIIA (CD32A), biotinylated (human, UniProt P12318 34-218, limits assumed, site-directed biotinylation at AviTag); experiment: SPR (Biacore), 37 °C, biotin-captured human CD32A as ligand, steady-state plot; left-hand column, no heading on the sheet
T6 construct: also called human CD32A
T6 sequence (looked up): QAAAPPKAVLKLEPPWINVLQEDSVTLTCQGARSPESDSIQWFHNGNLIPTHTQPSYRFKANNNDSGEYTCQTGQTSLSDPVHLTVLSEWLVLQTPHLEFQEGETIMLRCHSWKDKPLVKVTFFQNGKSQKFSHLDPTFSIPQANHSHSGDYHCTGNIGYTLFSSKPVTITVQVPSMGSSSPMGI
Description: FIG. 21: SPR interaction analysis of antibody binding to CD32. […] Affinity parameters were evaluated for interaction with receptors using a Steady State Binding model.

binding result [1]: no binding (tested: 500 nM to 4000 nM)
Kd [2]: 7.8 nM
Kd [3]: 23.5 nM
Kd [4]: 72 nM
binding result [5]: no binding
binding result [7]: no binding
B1: scFv-IgAb_268 (CD123-1xCD16a1) (bispecific antibody)
heavy: QVQLQQSGAEVKKPGASVKVSCKASGYTFTDYYMKWVKQSHGKSLEWMGDIIPSNGATFYNQKFKGKATLTVDRSTSTAYMELSSLRSEDTAVYYCARSHLLRASWFAYWGQGTLVTVSSASTKGPSVFPLAPSSKSTSGGTAALGCLVKDYFPEPVTVSWNSGALTSGVHTFPAVLQSSGLYSLSSVVTVPSSSLGTQTYICNVNHKPSNTKVDKKVEPKSCDKTHTCPPCPAPEFEGGPSVFLFPPKPKDTLMISRTPEVTCVVVAVSHEDPEVKFNWYVDGVEVHNAKTKPREEQYNSTYRVVSVLTVLHQDWLNGKEYKCKVSNKALPAPIEKTISKAKGQPREPQVYTLPPSREEMTKNQVSLTCLVKGFYPSDIAVEWESNGQPENNYKTTPPVLDSDGSFFLYSKLTVDKSRWQQGNVFSCSVMHEALHNHYTQKSLSLSPGGGGGSGGGGSGGGGSGGGGSGGGGSGGGGSSYELTQPLSVSVALGQTARITCGGNNIGSKSVHWYQQKPGQAPVLVIYQDKKRPSGIPERFSGSNSGNTATLTISRAQAGDEADYYCQVWDDYIVLFGCGTKLTVLGGSGGSGGSGGSGGSGGSGGSQVQLVQSGAEVKKPGASVKVSCKASGYTFTNYYMQWVRQAPGQCLEWMGIINPSGGVTSYAQKFQGRVTMTRDTSTSTVYMELSSLRSEDTAVYYCARGSAYYYDFADYWGQGTLVTVSS
light: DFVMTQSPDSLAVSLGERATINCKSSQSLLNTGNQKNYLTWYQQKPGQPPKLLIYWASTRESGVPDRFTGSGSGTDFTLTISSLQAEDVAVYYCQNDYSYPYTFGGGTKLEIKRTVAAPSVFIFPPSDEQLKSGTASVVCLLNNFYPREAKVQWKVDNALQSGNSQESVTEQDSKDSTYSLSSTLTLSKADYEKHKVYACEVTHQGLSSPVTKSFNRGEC
notes: also called AFM28; CD123xCD16A scFv-IgAb_268
binding result [6]: no binding (tested: 2e-6 M (last point visible))
